2 molecules from article PMC2972695 can be followed below.

In data set [1] the target is T1, GST-SHOX2 (UniProt O60902 1-331). Put plainly: EMSA. For orientation: In EMSA bound probe runs differently from free probe, usually more slowly.
Data set [2] concerns the target T1, GST-SHOX2. Nature of the data set: competition.

T1 sequence (O60902 whole entry): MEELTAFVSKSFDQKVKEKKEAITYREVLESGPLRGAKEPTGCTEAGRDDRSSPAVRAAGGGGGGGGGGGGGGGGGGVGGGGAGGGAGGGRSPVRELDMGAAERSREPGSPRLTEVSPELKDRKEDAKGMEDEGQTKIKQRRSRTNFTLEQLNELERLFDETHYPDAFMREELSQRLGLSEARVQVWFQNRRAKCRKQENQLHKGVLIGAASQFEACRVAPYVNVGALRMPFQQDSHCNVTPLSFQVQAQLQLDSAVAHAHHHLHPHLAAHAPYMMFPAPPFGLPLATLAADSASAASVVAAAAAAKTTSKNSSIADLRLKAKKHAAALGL

B1: BMP4 EMSA oligonucleotide (34 bp conserved promoter motif) (dsDNA)
DNA 1: GGGTCTCATTATATTCAAATATTCCTTTTAGGAGCCA
DNA 2: GGGTGGCTCCTAAAAGGAATATTTGAATATAATGAGA
In the case of B1, the binding result in data set [1] is “binds”.

B2: BMP4 oligonucleotide, unlabelled homologous competitor (dsDNA)
DNA 1: GGGTCTCATTATATTCAAATATTCCTTTTAGGAGCCA
DNA 2: GGGTGGCTCCTAAAAGGAATATTTGAATATAATGAGA
In the case of B2, in data set [2], the binding result is “binds”.
